Measurements: patent US20070180544A1

What was measured:
[1] = molecular target: extracellular domain of rat neurexin-1-β (rat-NX1β-1), residues 48-300 (rat) (UniProt Q63373); experiment: SPR, β-neurexin immobilised; 3 µM
[2] = molecular target: extracellular domain of rat neurexin-1-β (rat-NX1β-1), residues 48-300 (rat) (UniProt Q63373); experiment: SPR (BIAcore), NX1β immobilised
[3] = molecular target: extracellular domain of rat neurexin-1-β (rat-NX1β-1), residues 48-300 (rat) (UniProt Q63373); experiment: SPR (BIAcore), NX1β immobilised; from ka and kd
[4] = molecular target: extracellular domain of rat neurexin-1-β (rat-NX1β-1), residues 48-300 (rat) (UniProt Q63373); experiment: SPR, NX1β immobilised; one value told for the four proteins
[5] = molecular target: extracellular domain of rat neurexin-1-β (rat-NX1β-1), residues 48-300 (rat) (UniProt Q63373); experiment: SPR, NX1β immobilised
[6] = molecular target: extracellular domain of rat neurexin-1-β (rat-NX1β-1), residues 48-300 (rat) (UniProt Q63373); experiment: SPR, β-neurexin immobilised; 111 nM
[7] = molecular target: extracellular domain of rat neurexin-1-β (rat-NX1β-1), residues 48-300 (rat) (UniProt Q63373); experiment: SPR (BIAcore), NX1β immobilised, NL1 62.5-2000 nM
[8] = molecular target: extracellular domain of rat neurexin-1-β (rat-NX1β-1), residues 48-300 (rat) (UniProt Q63373); experiment: SPR, NX1β immobilised; treated against native protein
[9] = molecular target: extracellular domain of rat neurexin-1-β (rat-NX1β-1), residues 48-300 (rat) (UniProt Q63373); experiment: SPR, NX1β immobilised; deglycosylated against native protein
[10] = molecular target: extracellular domain of rat neurexin-1-β (rat-NX1β-1), residues 48-300 (rat) (UniProt Q63373); experiment: SPR, NX1β immobilised; sialidase II treated against native protein
[11] = molecular target: extracellular domain of rat neurexin-1-β (rat-NX1β-1), residues 48-300 (rat) (UniProt Q63373); experiment: SPR, NX1β immobilised; treated against native protein, 500 nM

In the case of “R471C-NL3-639 (from UniProt Q62889 35-639) (receptor)”, the fold less β-neurexin binding than wild type [1] is reported as 50 fold.

In the case of “soluble truncated NL1 (recombinant, soluble entity; truncation not specified) (from UniProt Q62765 46-691) (receptor)”, the koff [2] is reported as 0.015 s⁻¹, the kon [2] is reported as 50000 M⁻¹ s⁻¹ and the Kd [3] is reported as 300 nM.

In the case of “T111A-NL1-638 (from UniProt Q62765 46-638) (receptor)”, the increase of NX1β binding activity after PNGase F digestion [4] is reported as 229%.

“N303A-NL1-638 (from UniProt Q62765 46-638) (receptor)” gave an increase of NX1β binding activity after PNGase F digestion [5] of 17%.

Molecule “S549A-NL1-638 (from UniProt Q62765 46-638) (receptor)” has an increase of NX1β binding activity after PNGase F digestion [4] of 229%.

“R473T-NL1-691 (from UniProt Q62765 46-691) (receptor)” gave a fold less total binding than wild type [6] of 3 fold.

Molecule “N343A-NL1-638 (from UniProt Q62765 46-638) (receptor)” has an increase of NX1β binding activity after PNGase F digestion [4] of 229%.

B1: NL1-651 (soluble rat neuroligin-1 truncated by a stop codon at Thr-652, N-terminal FLAG) (receptor)
chain: DYKDDDDKLAAANSSIDLQKLDDVDPLVTTNFGKIRGIKKELNNEILGPVIQFLGVPYAAPPTGEHRFQPPEPPSPWSDIRNATQFAPVCPQNIIDGRLPEVMLPVWFTNNLDVVSSYVQDQSEDCLYLNIYVPTEDVKRISKECARKPGKKICRKGDIRDSGGPKPVMVYIHGGSYMEGTGNLYDGSVLASYGNVIVITVNYRLGVLGFLSTGDQAAKGNYGLLDLIQALRWTSENIGFFGGDPLRITVFGSGAGGSCVNLLTLSHYSEGNRWSNSTKGLFQRAIAQSGTALSSWAVSFQPAKYARILATKVGCNVSDTVELVECLQKKPYKELVDQDVQPARYHIAFGPVIDGDVIPDDPQILMEQGEFLNYDIMLGVNQGEGLKFVENIVDSDDGVSASDFDFAVSNFVDNLYGYPEGKDVLRETIKFMYTDWADRHNPETRRKTLLALFTDHQWVAPAVATADLHSNFGSPTYFYAFYHHCQTDQVPAWADAAHGDEVPYVLGIPMIGPTELFPCNFSKNDVMLSAVVMTYWTNFAKTGDPNQPVPQDTKFIHTKPNRFEEVAWTRYSQKDQLYLHIGLKPRVKEHYRANKVNLWLELVPHLHNLNDISQYTSTTTKVPS
Work on B1 yielded a fold binding over NL1-691 [7] of 2.5 fold.

B2: NL1-691 (soluble rat neuroligin-1 truncated by a stop codon at Tyr-692, N-terminal FLAG) (receptor)
chain: DYKDDDDKLAAANSSIDLQKLDDVDPLVTTNFGKIRGIKKELNNEILGPVIQFLGVPYAAPPTGEHRFQPPEPPSPWSDIRNATQFAPVCPQNIIDGRLPEVMLPVWFTNNLDVVSSYVQDQSEDCLYLNIYVPTEDVKRISKECARKPGKKICRKGDIRDSGGPKPVMVYIHGGSYMEGTGNLYDGSVLASYGNVIVITVNYRLGVLGFLSTGDQAAKGNYGLLDLIQALRWTSENIGFFGGDPLRITVFGSGAGGSCVNLLTLSHYSEGNRWSNSTKGLFQRAIAQSGTALSSWAVSFQPAKYARILATKVGCNVSDTVELVECLQKKPYKELVDQDVQPARYHIAFGPVIDGDVIPDDPQILMEQGEFLNYDIMLGVNQGEGLKFVENIVDSDDGVSASDFDFAVSNFVDNLYGYPEGKDVLRETIKFMYTDWADRHNPETRRKTLLALFTDHQWVAPAVATADLHSNFGSPTYFYAFYHHCQTDQVPAWADAAHGDEVPYVLGIPMIGPTELFPCNFSKNDVMLSAVVMTYWTNFAKTGDPNQPVPQDTKFIHTKPNRFEEVAWTRYSQKDQLYLHIGLKPRVKEHYRANKVNLWLELVPHLHNLNDISQYTSTTTKVPSTDITLRPTRKNSTPVTSAFPTAKQDDPKQQPSPFSVDQRD
With B2 the fold increase in binding after combined sialidase II and PNGase F treatment [8] was 5 fold, the fold increase in binding after PNGase F treatment [9] was 3 fold and the fold increase in binding after sialidase-II treatment [10] was 2 to 2.5 fold.

B3: NL1-638 (soluble rat neuroligin-1 truncated by a stop codon at Ile-639, N-terminal FLAG) (receptor)
chain: DYKDDDDKLAAANSSIDLQKLDDVDPLVTTNFGKIRGIKKELNNEILGPVIQFLGVPYAAPPTGEHRFQPPEPPSPWSDIRNATQFAPVCPQNIIDGRLPEVMLPVWFTNNLDVVSSYVQDQSEDCLYLNIYVPTEDVKRISKECARKPGKKICRKGDIRDSGGPKPVMVYIHGGSYMEGTGNLYDGSVLASYGNVIVITVNYRLGVLGFLSTGDQAAKGNYGLLDLIQALRWTSENIGFFGGDPLRITVFGSGAGGSCVNLLTLSHYSEGNRWSNSTKGLFQRAIAQSGTALSSWAVSFQPAKYARILATKVGCNVSDTVELVECLQKKPYKELVDQDVQPARYHIAFGPVIDGDVIPDDPQILMEQGEFLNYDIMLGVNQGEGLKFVENIVDSDDGVSASDFDFAVSNFVDNLYGYPEGKDVLRETIKFMYTDWADRHNPETRRKTLLALFTDHQWVAPAVATADLHSNFGSPTYFYAFYHHCQTDQVPAWADAAHGDEVPYVLGIPMIGPTELFPCNFSKNDVMLSAVVMTYWTNFAKTGDPNQPVPQDTKFIHTKPNRFEEVAWTRYSQKDQLYLHIGLKPRVKEHYRANKVNLWLELVPHLHNLND
B3 gave a fold binding over NL1-691 [7] of 2.5 fold, an increase of NX1β binding activity after PNGase F digestion [4] of 229% and a fold increase in binding after PNGase F treatment [9] of 3 fold. It also gave a fold increase in binding after combined sialidase II and PNGase F treatment [11] of 5 fold and a fold increase in binding after sialidase-II treatment [10] of 2 to 2.5 fold.
